The values that follow come from US20240092891A1.

Like-named read-outs stand apart in the source and are kept apart here.

Holding throughout (experiment): flow cytometry on human CLDN18.1-HEK293 cells, antibody at 100 µg/mL
In general terms: Flow cytometry measures light scatter and fluorescence of single cells or particles in a stream.

The target in assay [1] is human CLDN18.1 (human) (UniProt P56856).
Assay [2] has the same target. This is another data set of the same source.
Assay [3] has the same target. This is another data set of the same source.

human CLDN18.1 (human), sequence (P56856 whole entry): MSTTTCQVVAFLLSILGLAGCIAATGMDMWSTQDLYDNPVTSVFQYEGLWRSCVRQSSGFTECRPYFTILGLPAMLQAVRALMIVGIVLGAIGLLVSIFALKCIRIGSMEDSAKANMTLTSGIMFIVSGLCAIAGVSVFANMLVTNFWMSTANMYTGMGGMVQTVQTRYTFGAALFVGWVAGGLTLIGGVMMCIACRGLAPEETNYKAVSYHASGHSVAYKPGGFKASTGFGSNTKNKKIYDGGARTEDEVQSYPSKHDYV

As to irrelevant control hIgG1 (antibody), the positive rate of cell binding in assay [1] worked out at 0.049%; in assay [2], 0.851%; in assay [3], 0.067%.
